Measurements as given in publication PMC3903306 (Biochemistry, 2012).

Biological target: the molecule itself
Test: cross-linking

B1: IpgC (natural protein)
chain: MSLNITENESISTAVIDAINSGATLKDINAIPDDMMDDIYSYAYDFYNKGRIEEAEVFFRFLCIYDFYNVDYIMGLAAIYQIKEQFQQAADLYAVAFALGKNDYTPVFHTGQCQLRLKAPLKAKECFELVIQHSNDEKLKIKAQSYLDAIQDIKE
  stoichiometry N: 2
